The series is described as follows: protease stability score; higher = more stable; yeast display proteolysis, trypsin and chymotrypsin.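 Further: log10 excess protease needed over predicted unfolded state with 0 meaning unfolded.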

Take “DEDEEETLAQTWIKLMETGDPEQNMENVDPNVKVTYGDKTLHGREQFSDWEKKLHERVDRIEIKKMDVHNGSIRIVVVNDVNGKTKRFVVHLIYENGRLKSAKETDQ”: the protease stability score worked out at 0.413.

“DEDEEKRIRKYIKQQETGDPDKLNKYFDKDVHLHVGDKEVKGDEQANRELEHKFRKLRYSFEVKKLEVSNGKVEVKYHATVESNGKPHTYEVSADATLHNGRLQSQVNNERG” yielded a protease stability score of -0.021. As for “DEDEERDFEEMWKVFHKGNPDDYKKMIDKDVEIRIGDKTVHGREEIVRQVHHEMNNINFQLQSVDIRVTNGRVEIDVRYVSNVNGRPDTIRYTYHASASNGKLKTAEYRISEDQQNRHRR”, the protease stability score is -0.273. To “DEDEERKAVERFLDALKTGDPDKFKKLVDPNVNIQVGDKEINGREQYAHEVHRRKKRADHLEVEHVNVKNGKVQIFVVINVDGRSHHYVLDAHIHNGRIVEMKVEHQ” belongs 0.08; to “DEDEERKVVHSIMHALEKGDEQKAVDLMDPNVKVIIGDKEISGRERVRDVAQELRKRIDHLRVKTLDVKNGQARAVAEVEHNGQERRIEFNMQLDNGRVKDMRIQER”, 1.09.

In turn, “DEDEERQFAKDLMRAMEKNDPKLLVKLADKDVSINYGEKQVHGKRQAEQLMRDLHKRVDDIKVRHVSMHNGSLTINLVLNVNGHNENLVAIVRVENGRIKSLTFEHR” yielded a protease stability score of 0.861. To “DEDEKMKRAMKKLNEVQNTGNEKTLANLMDPNARMDIGDKRYHGREQVTTAVKDIQRRVDHVEWRLTDLKQDGDKLDAKADVIFRTNGTQTNRHADMKLRDVNGQLVIVEYVIS” belongs -0.093; to “DEDEKRELARRFAKNFLHGDHDNIRDLADKDVDAQVGDQTFTGTEQLMRVVKEVRDRVDHFNLTSVDVHNGQADIHARAKVNGRDYRVKIRIKIHNGRILHVQFNRR”, 1.18. The sequence “DEDEKRKAEHLVRDGSFEELKDLMDENAKVRYGDKEFKGREQAQDAMRQMSRAVDSITVKSLDMQGDTVTARAQLTYNGQHYDVVIQMVVNNGRIKQFVVVVRDPKQKRTLENLRQ” displayed a protease stability score of 0.567. “DEDEKTKLAEQAKDILQEGNFHEMMHLADENAKVVYGDRRYDGREKVHKVLRDFDDRVDKIDVKRVRVENGRAKIVADVEHDGQRTTVIIHIQAHNGKIRRIRFHTP”: the protease stability score is 0.586. Sequence “DEDEKVRQLVRDLIEALRTNDQKRWVELADKDARLKVGDKSYHGREELAKQMKKLREHVDHVTMRVKRVEVHNGRISVDATLTYDINGKKNHQTVKMQFRRHNGQIRLVQIEME” showed a protease stability score of 0.174. For “DEDELAQKLVEQMVKAIRHGDPHDFVKMIDKNATMDVGDKRLHGREKLEEFIKKLVDKYDHLDAKVSHMDLDNGQIKVNIEIHLVKNGKTDHITLDARADVTNGDARFVDFQWR”, the protease stability score came to 1.47.

In turn, “DEDELQRFAEQVNRVVRQGDPKQAERLFDENARVQIGDKTYHGREDISKMIENQRRRVDHIKVRRIDVQGNELVIHLVYNVNGQEHRNVLVFELHNGKIESAHRTDG” yielded a protease stability score of 0.959. The sequence “DEDEMKNVLELIRVMSKGDEDRIRERADPNVKVNIGDKRLQGREELARQASTEKKKMDIHIRVDSVHVHDGNVLIVYKRENHYNGEPNRDEQRFQAQASNGNLKNMSWRFDEDKKRKIET” yielded a protease stability score of -0.038. The sequence “DEDENNKILESINTNDSKHNKDLLDKDVTIRYGDKQVQGREEALEFLDTWNKRVDHFRVHHMTVKGDKLRMRFEIVFNGVTVEVSLSAKVENGRMKHFHLDARDEKVRHRLKRMFG” registered a protease stability score of 0.108.

“DEDEQKVAKTFVEAVRQGDEKQIDDLADPNVRLRVGDKTLHGRDQLREHVRQMKEELKVEWSVQHVDFSDGRARIHAEMRVDVNGKPVTDDVTFFIEVKNGKVKNVEIHMDESVKREAEQ” yielded a protease stability score of 0.548.

On to “DEDEQRKIDETMHRLMEENNFDQLARTADENVRIVIGDKTYRGREQAVSAFRKLREHVDHADVKSVEIRNGRVLIKARLSFNGRTADVVFTFQFTNGRIQWAEVDPHAVRNARE”, for which the protease stability score is 1.06. “DEDEQRTLVEQLARAIQQGDEDQVRKLADPNAKARYGDHEIHGHDQLAHVVRQLKDQVDSIEVESFSVRNGRAELDIRFDVNGRDVKITINAEIRNGRMKHVEFQYTNEDQEKTANR” displayed a protease stability score of 0.948.

“DEDERAEKMARTAQEILETGDEEKAKRLFPPNARAKVGDRTYHGREDIVKHLKELWDRADHVRVEIKSFRVRGDNVHVVMTLVFTYNGKNETQQLTMIFVHVNGRQVAQDMKIG” displayed a protease stability score of 0.671. In the case of “DEDERQDLARKYNKALKQGDSKKFEELVDKHVKVEVGETRFHGREQASKNFRELVDNFDEFEVKSLEVHGESVTVEAVARINGRTANIRFQRTIHNGKNQVVKLNPDDMRRNLK”, the protease stability score is -0.134.

The sequence “DEDETAKRVNDKAREAAETNNPKQFEELADPNVRMVIGDKEWRGRRQLSHWYKEMADRADHMQVDYQDVHVSGDKVTLHVQINLESNGHSEIKTLIVVMVVHNGRLRAQSQWEQ” returned a protease stability score of 0.534. To “DEDEVEKIATTIKDVIQEGNFRQLEKLADPNAKVVIGDKTYRGRDAMRHAAQLLQQRADHITVQTVHVHGNKVEAHLRATVNGRDVHFVVKVTLENGRIKNMKIEYTDEDKFKEMVG” belongs 1.31; to “DEDEVKEVLKRIKSNDWHTLAKQADENARAVVGDKTYHGRTQMKKWMDKVRKRVDHIEISKVKQEGDKAVVDLVFQVNGVKVHLVIYIHVHNGKVVDVQAKARNEEELHKLKKAVS”, 0.331. Consider “DEDEVRKAKKYIENWEQGNPKDLQEQADENASAQYGDKRIHGMTKIAKFVHKEHEESRVEIQDVQIEAHNGTVHIEIRAIFDHNGKPSQKKVFMSMTMHNGKVKDAELHSDK”, for which the protease stability score was 0.155. “DEDEVRKIAEDVLRIIETGNPDDAMEQADENAEVIVGDKTYSGRTELRKVIHHMREKVDHMQVKSYDAHGNKATAVFILDNNGRKDEHVVYFDFHNGRLKKVNIQKK” yielded a protease stability score of 0.243.

Consider “DEDEWRKIWTVFENNDPRKFKTMVDKHAHAEVGDTEFHGREQIQHYFERLIRRVDHIEYKSVNIHGDKMRAEVVLNVDGQNLRYVYEVTVHNGRIKMMRIRFTDEEVERQMKRIVK”, for which the protease stability score stood at 0.209. For the sequence “DEDEYAHQVAQELRKAMETGDSDRIARLFDENAELRVGDKVWHGRDQIRKYWHEWLRRADTVDVKIDEVDVEGDKARAHIRVRAEDNGRHQEFTVKMTLKNKNGRAKITSMHVS”, the protease stability score was determined as 1.57. In turn, “DEDFDTQLEEMLKNILNGNTEEIDKYADPNVKLEVGDHEYHGREHVKENWKEELDHMDVEVKSVHISARDGRAHVNLEFVVNIDGRPRHVKVREEFVWKNGKLKRANRHFSEEVKRQLER” gave a protease stability score of 0.677. To “DEDFMNKFEELLRNQQTGDPQFVADQADPNARWNVGDKQLHGRHQIRHQAKTESDQMEVQIDRMDVKVQNGHIDARINRQSNENGRPSRNELDQTVHYHNGKLKQLDESTSH” belongs -0.44. To “DEDFWERVESMLRLWKHGNEDEWSKNADPNVRYVYGEKVVTGREQAKHMFRKVKDEIRFTFEFKRVRIQGDTIEAKFEFRADRNGKPRSANATVTIRFEGDKVHDNDVKSQS” belongs 0.42; to “DEDFWRRLVTLMQKNDFDQLARLVDPNAEVTVGDKTYEGRENIQKMWHKLKKQFDHYEIKTYRVKGDKLDMDYVFVVNGQQVRAKVEMRVHNGRLVELRFDARNPDELDTVRRILS”, 1.55; to “DEDHASRQAKKFIDAMRSGDEELAKNLVDKDVTAIYGDRTVNGREQVMKMVKEFRNQADEITVDDMKVKNGRVVIHLKMDINGEQEVVIVILDIRNGRAKEISFERR”, 1.27. Sequence “DEDHDVRVAENLLEAIRTGNEDEVTRLADENAELEIGDHRYHGREQVSSAAKRINDRADDISINEVHYTGDKLSVQMQMNVNGKNIVVDVVVVAHNGRVKTVRFQYTSEEDFKKFES” yielded a protease stability score of 0.538. To “DEDHEAQRFFDHFEEVVQTGDPDQAKQLIDKNATAKYGDQEYHGWEDVHKHWLRLRRQADHIKFEVDDVRATNGRYEIQFVVIIDTNGNENTRRYRLQAQEDNGRLRVQNLTQQ” belongs 1.49; to “DEDHESRVVELLEEIVRKGDPDEVRRQADPDARVDYGDKRLHGRDFRKAAKIIEEMRVDHQQFTTYKTHNGRAQMLVTVEHNGERRDIQIIVHYRGDKMKEMRFDTG”, -0.224; to “DEDHIKTHAEELMNALSRGDEKRFVDLVDPNARFRIGDKEYKGSEQLHTLMREIHTEVDHIEVRHLRVRNGQVQATIRYDINGKTRSMTIHFEVENGRVKHMEVSSQ”, 1.3. With “DEDHKAREMMRRWEHNWRTGDPNKLANQFDPNATWDVGDHTIKGREQYAEQIKRNMEQADDVHITVKDVKREGETIVVRFHDVQNHNGQNRVTIVNARFFDDNGSFVMVSFKQE”, the protease stability score was -0.321.

Sequence “DEDHLHRLVKEMVKVLQQGDPDRFMELADKDATAVIGDKRFHGRTQARKAVKEFTDTVDHIRIKTFNAHGDKVTIVVRLDHNGKNAILRIEFQVDNGRFKEVVFDPDHLQDLRR” yielded a protease stability score of 0.071. To “DEDHLKDANRRVVHALEHGDPDEFMNMADKDVQIEIGDTVVEGSHKLKEWAEDLHNRVDHIEILKVDLQGDTLNLNVRMRSNGHNRNAVLHVRVHNGKIQSLRMKDN” belongs 0.55; to “DEDHLKKFVSDLQHNSHERLSKQADENAEMEVGNKTYSGREQFSHFAQQQYHRADHFTIDRVEIRNGHITLEAVMVVDGHKIRFSAHAELHNGRLKFYVMKATNEDLVRQMNRLNN”, 0.701.

Take “DEDHLRKLKEYVKNYNKGDPDKLDEYLDPNVRINVGDHTVHGMDEHNKQAEERTRNMRIQLRRVDVKARNGQLKATINAEAEVNGRPATLHADITVKMHNGKVKNIHVRMPEDYKREREK”: the protease stability score was 0.008. To “DEDHMRTLIQRFIEAVQKGDEEQIKRLADPNARMRVGEREIHGREEIAKEIKDIRDQVDHINIRTWSFHNGEAHLEVEYNHNGQHRTMKLRIVVRNGKLQELEWRKG” belongs 2.39; to “DEDHNRRLAHTIVEILRTGDPDKMNEQLDPNARAHYGDHEIHGRENVAKMVKELHDRVDHFTVKTYDADGDHITIELVMKVNGRNVEMTVVVRVRNGRLVDLRYRYTSEEQEKTEKE”, 2.12; to “DEDHNRRVAKRFIEAVLSGDPEQAKRNADKHVKLQVGDKEYRGRDDLKTWIEQVSTRADHNQIHSMSVSGNRMNVDVKFNHNGRRERTVIRVEVENGKVKKVEVHSG”, 0.975. To “DEDHQAEKIFRDLVEAFKNGDEKRAEELFDPNARLQYGDKTYHGRKAASRLVSHVRTEFDHVDWQIKSVTRTGDKIDIDVDATADHNGHQDKFKIIITLKVTNGKAVLKEVRFK” belongs 1.94.

“DEDHRERLANHAVEAFQDGDPQQMEELADEDARAEVGDKELTGRERISKMVKTIADNVDHIELKSYEKTGDTVRFHMVLDDNGKQKRLVLVVRIHNGRLKELRIQQS”: the protease stability score was found to be 1.53. To “DEDHVQDKAEDLARAIQRGDEDRMNELFDENVKVQVGDKTIHGRENVVDHMREQNEQADRIEIKSITATGDKIRIEMVVVHNGQNTHVVFEVKWENGKIKHMTQKTE” belongs 1.94; to “DEDINKMVKEFIRNMQNGNHSRLAQLADPNARVQIGDKTLHGREDLERHVRELTERSRVEYKSVDVKVHNGRAHLHLDVVVHHNGRPQRSRVQAVFTAQGDKIKDIRVESNQ”, 0.116.

The values above are taken from the NTF2 design screens of Basanta et al. (2020).
